Data as given in patent EP4725966A1, “HUMAN EPIDERMAL GROWTH FACTOR 3 ANTIBODY, PREPARATION METHOD THEREFOR, AND USE THEREOF” (priority 2023, dated 2024).

Assays:
[1] = tested on: A375 cells overexpressing human HER3; test: ADC cytotoxicity, CellTiter-Glo; type: cell-based; settings: Example 21, FIG. 13
[2] = tested on: HER3-overexpressing A375 cells; test: Cell imaging of internalization; type: cell-based; settings: 100 nM, FIG. 11
Experimental: A cell imaging microplate detection system was used to monitor the internalization of hHE4-G1W, hHE4-G1W-DXd, patritumab, and patritumab-DXd after binding to HER3 on the surface of A375 tumor cells. hHE4-G1W, hHE4-G1W-DXd, patritumab, and patritumab-DXd (each 100 nM) were incubated with HER3-overexpressing A375 cells at 4°C for 30 minutes, respectively. Unbound antibodies were removed by washing, and PE-labeled goat anti-human Fc secondary antibody (Jackson) was added. The mixture was incubated at 4°C for 30 minutes, and then the unbound secondary antibody was removed by washing. When the antibodies were bound to the surface of A375 cells and had not yet undergone internalization, these samples were designated as the 0h samples. Fluorescence images were acquired using a Biotek Cytation 1 imaging reader. Cells were then incubated at 37°C for 3 hours and imaged again.

[3] = tested on: HER3-expressing HCC1569 cells; test: ADC cytotoxicity; type: cell-based; settings: FIG. 13
Experimental: (§1) A375 and OVCAR3 cells were seeded in 96-well plates at 5,000 cells per well, and gradient-diluted ADCs (cHE4-G1W-DXd, cHE5-G1W-DXd, cHE7-G1W-DXd, patritumab-DXd, and IgG-DXd) were added. After incubation at 37°C for 5 days, cell viability was measured using CellTiter-Glo (Promega) to evaluate cytotoxicity of the ADCs.
(§2) The cytotoxicity of antibody-drug conjugates based on hHE4-G1W against HER3-expressing HCC1569, A375, and JIMT-1 tumor cells was tested. Antibody-drug conjugates were prepared as described in Example 11. Hydrophobic interaction chromatography indicated the antibody-to-Dxd ratios for cHE4-G1W-DXd, hHE4-G1W-DXd, patritumab-DXd, and negative control IgG-DXd were 1:7, 1:8, 1:7.8, and 1:8, respectively.

[4] = tested on: human HER3-overexpressing JIMT-1 cells; test: ADC cytotoxicity; type: cell-based; settings: FIG. 13
Experimental: as §1, §2

[5] = tested on: SW620 tumor; test: Tumor inhibition in SW620 tumor-bearing mice; type: in vivo, Female SCID mice; settings: 3 mg/kg, single dose, FIG. 14
Experimental: The anti-tumor efficacy of hHE4-G1W-DXd and cHE5-G1W-DXd was evaluated in SW620 tumor-bearing mice. Female SCID mice were subcutaneously injected with SW620 cells in the dorsal region to establish the xenograft model. After tumor establishment, mice were randomly divided into nine groups and treated with a single dose. Three groups served as negative controls: one group received PBS, and two groups received IgG-DXd at low dose (3 mg/kg) and high dose (6 mg/kg), respectively. Experimental groups were administered with hHE4-G1W-DXd, cHE5-G1W-DXd, or patritumab-DXd at 3 mg/kg or 6 mg/kg. The average Dxd-to-antibody ratio was 8. Mouse body weights and tumor volumes were measured.

## patritumab-DXd [reference compound]
[1]
  cytotoxicity against A375 cells: significant cytotoxicity
[2]; 0 hour
  binding to HER3 on the surface of A375 cells: bound to HER3 expressed on the cell surface
[2]; after 3 hours at 37°C
  internalization into A375 cells: internalized into the A375 cells
[3]
  cytotoxicity against HCC1569 cells: significant cytotoxicity
[4]
  cytotoxicity against JIMT-1 cells: significant cytotoxicity
[5]
  tumor growth: significant tumor growth at day 14 postadministration
